# Data from patent EP4786492A1.
# Positions count from the first letter of the chain named.
# B1: Hab015VL4VH5a-hFc (scFv, part only; not given: VL-VH linker and human IgG1 Fc, V domains shown, not shown: another chain or arm of the molecule; a dimerising Fc or GST; small tags and cut ends)
# VL: NIVLTQSPATLSLSPGERATLSCKASENVGTYVSWFQQKPGQSPRLLIYGASNRYTGIPARFSGSGSGTDFTLTISSLEPEDFAVYYCGQFYSFPSTFGGGTKVEIK
# VH: EVQLVESGGGLVKPGGSLRLSCVASGITFSNFWMNWVRQAPGKGLEWVGQIRLKSDDYATHYAESVKGRFTISREDSKNTVYLQMNSLKTEDTAVYYCTTGYYFDYWGQGTTVTVSS
# B2: Hab015VL5VH1a-hFc (scFv, part only; not given: scFv linker and human IgG1 Fc, V domains shown, not shown: another chain or arm of the molecule; a dimerising Fc or GST; small tags and cut ends)
# VL: NIQMTQSPSSLSASVGDRVTITCKASENVGTYVSWYQQKPGKSPKLLIYGASNRYTGVPSRFSGSGSGTDFTLTISSLQPEDFATYYCGQFYSFPSTFGGGTKVEIK
# VH: B1 VH with V23A
# Target: human delta-like ligand 3 (DLL3) on SHP77 cells (human) (UniProt Q9NYJ7)
# Assay: FACS on SHP77 cells
# Sequence of human delta-like ligand 3 (DLL3) on SHP77 cells (human) (Q9NYJ7 27-618, stated change not applied): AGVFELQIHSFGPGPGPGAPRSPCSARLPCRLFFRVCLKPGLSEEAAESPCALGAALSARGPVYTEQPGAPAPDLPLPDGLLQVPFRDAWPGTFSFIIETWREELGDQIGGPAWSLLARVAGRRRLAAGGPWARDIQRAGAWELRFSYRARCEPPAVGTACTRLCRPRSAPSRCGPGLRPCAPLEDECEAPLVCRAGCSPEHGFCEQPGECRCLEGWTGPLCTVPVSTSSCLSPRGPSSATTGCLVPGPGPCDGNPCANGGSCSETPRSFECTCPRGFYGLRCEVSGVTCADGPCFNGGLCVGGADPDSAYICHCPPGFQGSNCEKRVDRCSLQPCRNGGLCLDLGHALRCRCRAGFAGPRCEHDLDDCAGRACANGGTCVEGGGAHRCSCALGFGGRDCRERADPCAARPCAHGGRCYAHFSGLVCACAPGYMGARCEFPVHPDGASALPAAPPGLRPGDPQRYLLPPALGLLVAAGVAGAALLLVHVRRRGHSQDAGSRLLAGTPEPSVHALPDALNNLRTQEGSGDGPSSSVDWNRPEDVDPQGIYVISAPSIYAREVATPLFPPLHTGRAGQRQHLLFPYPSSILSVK
Binder,MFI at 0.00128 nM,MFI at 0.0064 nM,MFI at 0.032 nM,MFI at 0.16 nM,MFI at 0.8 nM,MFI at 4 nM,MFI at 20 nM,MFI at 100 nM
B1,100 MFI,117 MFI,179 MFI,368 MFI,709 MFI,812 MFI,997 MFI,1250 MFI
B2,102 MFI,122 MFI,185 MFI,343 MFI,612 MFI,768 MFI,907 MFI,1140 MFI

# Target: DLL3 endogenously expressed on NCI-H82 cells (UniProt Q9NYJ7)
# Assay: FACS on NCI-H82 cells; antibody 4 nM
# Sequence of DLL3 endogenously expressed on NCI-H82 cells (Q9NYJ7 27-618): as the sequence (Q9NYJ7 27-618, stated change not applied) above
row,Binder,MFI
1,B1,1030
2,B2,867

# Target: DLL3 endogenously expressed on NCI-H82 cells (UniProt Q9NYJ7)
# Assay: FACS on NCI-H82 cells; antibody 20 nM
row,Binder,MFI
1,B1,1190
2,B2,1100

# Target: DLL3 endogenously expressed on NCI-H82 cells (UniProt Q9NYJ7)
# Assay: FACS on NCI-H82 cells; antibody 0.8 nM
row,Binder,MFI
1,B1,942
2,B2,811

# Target: DLL3 endogenously expressed on NCI-H82 cells (UniProt Q9NYJ7)
# Assay: FACS on NCI-H82 cells; antibody 100 nM
row,Binder,MFI
1,B1,1510
2,B2,1220

# Target: DLL3 endogenously expressed on NCI-H82 cells (UniProt Q9NYJ7)
# Assay: FACS on NCI-H82 cells; antibody 0.16 nM
row,Binder,MFI
1,B1,476
2,B2,478

# Target: human DLL3 protein expressed on CHO-K1 recombinant cells (human DLL3 extracellular segment fused to EpCAM transmembrane and intracellular regions) (human) (UniProt Q9NYJ7)
# Assay: FACS, CHO-K1 hDLL3 cells, 4 nM antibody
# Sequence of human DLL3 protein expressed on CHO-K1 recombinant cells (human DLL3 extracellular segment fused to EpCAM transmembrane and intracellular regions) (human) (Q9NYJ7 other isoform, or with tags, fused parts or gaps limits assumed): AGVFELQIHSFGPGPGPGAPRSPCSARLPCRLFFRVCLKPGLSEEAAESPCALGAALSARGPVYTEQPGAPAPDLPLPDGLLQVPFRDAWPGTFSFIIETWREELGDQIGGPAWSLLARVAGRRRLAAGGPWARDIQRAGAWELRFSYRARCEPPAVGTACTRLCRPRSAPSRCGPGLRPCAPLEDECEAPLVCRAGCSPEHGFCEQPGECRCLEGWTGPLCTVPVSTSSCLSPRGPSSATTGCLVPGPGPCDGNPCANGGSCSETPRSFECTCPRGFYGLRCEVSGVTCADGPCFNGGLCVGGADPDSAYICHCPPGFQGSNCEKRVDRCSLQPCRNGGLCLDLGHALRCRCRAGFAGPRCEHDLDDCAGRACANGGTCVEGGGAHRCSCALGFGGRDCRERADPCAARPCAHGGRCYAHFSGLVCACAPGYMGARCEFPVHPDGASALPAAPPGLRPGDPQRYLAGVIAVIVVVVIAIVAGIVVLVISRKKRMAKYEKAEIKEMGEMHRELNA
row,Binder,MFI
1,B1,10900 MFI
2,B2,10600 MFI

# Target: mouse DLL3 on CHO-K1-mDLL3 cells (mouse) (UniProt O88516)
# Assay: FACS, CHO-K1-mDLL3 cells, 4 nM antibody
# Sequence of mouse DLL3 on CHO-K1-mDLL3 cells (mouse) (O88516 other isoform, or with tags, fused parts or gaps limits assumed): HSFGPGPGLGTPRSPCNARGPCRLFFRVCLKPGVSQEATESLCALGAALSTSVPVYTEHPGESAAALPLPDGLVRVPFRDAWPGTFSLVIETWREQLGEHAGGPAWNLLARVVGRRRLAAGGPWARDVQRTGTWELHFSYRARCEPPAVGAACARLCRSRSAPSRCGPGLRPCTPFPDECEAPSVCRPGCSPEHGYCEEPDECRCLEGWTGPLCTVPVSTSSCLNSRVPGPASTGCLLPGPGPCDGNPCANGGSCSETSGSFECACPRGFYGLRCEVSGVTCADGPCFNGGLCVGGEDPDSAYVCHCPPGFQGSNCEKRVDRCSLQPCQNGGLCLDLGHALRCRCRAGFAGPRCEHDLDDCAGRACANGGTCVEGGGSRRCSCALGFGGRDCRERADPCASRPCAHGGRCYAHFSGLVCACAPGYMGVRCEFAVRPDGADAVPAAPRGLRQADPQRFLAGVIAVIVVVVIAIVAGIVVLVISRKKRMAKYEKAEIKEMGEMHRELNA
row,Binder,MFI
1,B1,1210 MFI
2,B2,1200 MFI

# Target: DLL3 endogenously expressed on NCI-H82 cells (UniProt Q9NYJ7)
# Assay: FACS on NCI-H82 cells; antibody 0.032 nM
row,Binder,MFI
1,B1,212
2,B2,219

# Target: human DLL3 protein expressed on CHO-K1 recombinant cells (human DLL3 extracellular segment fused to EpCAM transmembrane and intracellular regions) (human) (UniProt Q9NYJ7)
# Assay: FACS, CHO-K1 hDLL3 cells, 20 nM antibody
row,Binder,MFI
1,B1,12000 MFI
2,B2,11800 MFI

# Target: mouse DLL3 on CHO-K1-mDLL3 cells (mouse) (UniProt O88516)
# Assay: FACS, CHO-K1-mDLL3 cells, 20 nM antibody
row,Binder,MFI
1,B1,1420 MFI
2,B2,1290 MFI

# Target: DLL3 endogenously expressed on NCI-H82 cells (UniProt Q9NYJ7)
# Assay: FACS on NCI-H82 cells; antibody 0.0064 nM
row,Binder,MFI
1,B1,135
2,B2,137

# Target: human DLL3 protein expressed on CHO-K1 recombinant cells (human DLL3 extracellular segment fused to EpCAM transmembrane and intracellular regions) (human) (UniProt Q9NYJ7)
# Assay: FACS, CHO-K1 hDLL3 cells, 0.8 nM antibody
row,Binder,MFI
1,B1,4390 MFI
2,B2,4310 MFI

# Target: human DLL3 protein expressed on CHO-K1 recombinant cells (human DLL3 extracellular segment fused to EpCAM transmembrane and intracellular regions) (human) (UniProt Q9NYJ7)
# Assay: FACS, CHO-K1 hDLL3 cells, 100 nM antibody
row,Binder,MFI
1,B1,12400 MFI
2,B2,12000 MFI

# Target: mouse DLL3 on CHO-K1-mDLL3 cells (mouse) (UniProt O88516)
# Assay: FACS, CHO-K1-mDLL3 cells, 0.8 nM antibody
row,Binder,MFI
1,B1,875 MFI
2,B2,922 MFI

# Target: mouse DLL3 on CHO-K1-mDLL3 cells (mouse) (UniProt O88516)
# Assay: FACS, CHO-K1-mDLL3 cells, 100 nM antibody
row,Binder,MFI
1,B1,1530 MFI
2,B2,1550 MFI

# Target: DLL3 endogenously expressed on NCI-H82 cells (UniProt Q9NYJ7)
# Assay: FACS on NCI-H82 cells; antibody 0.00128 nM
row,Binder,MFI
1,B1,118
2,B2,118

# Target: human DLL3 protein expressed on CHO-K1 recombinant cells (human DLL3 extracellular segment fused to EpCAM transmembrane and intracellular regions) (human) (UniProt Q9NYJ7)
# Assay: FACS, CHO-K1 hDLL3 cells, 0.16 nM antibody
row,Binder,MFI
1,B1,870 MFI
2,B2,936 MFI

# Target: mouse DLL3 on CHO-K1-mDLL3 cells (mouse) (UniProt O88516)
# Assay: FACS, CHO-K1-mDLL3 cells, 0.16 nM antibody
row,Binder,MFI
1,B1,350 MFI
2,B2,393 MFI

# Target: human DLL3 protein expressed on CHO-K1 recombinant cells (human DLL3 extracellular segment fused to EpCAM transmembrane and intracellular regions) (human) (UniProt Q9NYJ7)
# Assay: FACS, CHO-K1 hDLL3 cells, 0.032 nM antibody
row,Binder,MFI
1,B1,283 MFI
2,B2,330 MFI

# Target: monkey DLL3 on CHO-K1-cyno DLL3 cells (cynomolgus monkey)
# Assay: FACS, CHO-K1-cyno DLL3 cells, 4 nM antibody
# Sequence of monkey DLL3 on CHO-K1-cyno DLL3 cells (cynomolgus monkey) (chain, as listed by the source limits assumed): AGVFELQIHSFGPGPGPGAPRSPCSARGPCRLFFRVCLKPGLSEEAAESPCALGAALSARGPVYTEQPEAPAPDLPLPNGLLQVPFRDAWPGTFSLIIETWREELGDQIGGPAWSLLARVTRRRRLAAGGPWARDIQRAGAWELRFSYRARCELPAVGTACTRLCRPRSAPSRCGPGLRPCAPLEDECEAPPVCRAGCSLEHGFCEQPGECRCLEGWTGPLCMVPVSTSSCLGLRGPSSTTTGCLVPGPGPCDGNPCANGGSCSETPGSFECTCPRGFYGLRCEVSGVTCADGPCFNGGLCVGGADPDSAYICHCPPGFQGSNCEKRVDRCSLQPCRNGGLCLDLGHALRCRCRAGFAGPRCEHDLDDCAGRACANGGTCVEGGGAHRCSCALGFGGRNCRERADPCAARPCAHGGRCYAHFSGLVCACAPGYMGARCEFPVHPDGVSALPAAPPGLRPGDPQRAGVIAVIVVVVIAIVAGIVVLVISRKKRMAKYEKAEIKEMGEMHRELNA
row,Binder,MFI
1,B1,6520 MFI
2,B2,6660 MFI

# Target: mouse DLL3 on CHO-K1-mDLL3 cells (mouse) (UniProt O88516)
# Assay: FACS, CHO-K1-mDLL3 cells, 0.032 nM antibody
row,Binder,MFI
1,B1,170 MFI
2,B2,195 MFI

# Target: human DLL3 protein expressed on CHO-K1 recombinant cells (human DLL3 extracellular segment fused to EpCAM transmembrane and intracellular regions) (human) (UniProt Q9NYJ7)
# Assay: FACS, CHO-K1 hDLL3 cells, 0.0064 nM antibody
row,Binder,MFI
1,B1,150 MFI
2,B2,160 MFI

# Target: monkey DLL3 on CHO-K1-cyno DLL3 cells (cynomolgus monkey)
# Assay: FACS, CHO-K1-cyno DLL3 cells, 20 nM antibody
row,Binder,MFI
1,B1,7180 MFI
2,B2,7040 MFI

# Target: mouse DLL3 on CHO-K1-mDLL3 cells (mouse) (UniProt O88516)
# Assay: FACS, CHO-K1-mDLL3 cells, 0.0064 nM antibody
row,Binder,MFI
1,B1,126 MFI
2,B2,131 MFI

# Target: human DLL3 protein expressed on CHO-K1 recombinant cells (human DLL3 extracellular segment fused to EpCAM transmembrane and intracellular regions) (human) (UniProt Q9NYJ7)
# Assay: FACS, CHO-K1 hDLL3 cells, 0.00128 nM antibody
row,Binder,MFI
1,B1,122 MFI
2,B2,129 MFI

# Target: monkey DLL3 on CHO-K1-cyno DLL3 cells (cynomolgus monkey)
# Assay: FACS, CHO-K1-cyno DLL3 cells, 0.8 nM antibody
row,Binder,MFI
1,B1,4480 MFI
2,B2,4340 MFI

# Target: monkey DLL3 on CHO-K1-cyno DLL3 cells (cynomolgus monkey)
# Assay: FACS, CHO-K1-cyno DLL3 cells, 100 nM antibody
row,Binder,MFI
1,B1,7610 MFI
2,B2,7380 MFI

# Target: mouse DLL3 on CHO-K1-mDLL3 cells (mouse) (UniProt O88516)
# Assay: FACS, CHO-K1-mDLL3 cells, 0.00128 nM antibody
row,Binder,MFI
1,B1,117 MFI
2,B2,121 MFI

# Target: monkey DLL3 on CHO-K1-cyno DLL3 cells (cynomolgus monkey)
# Assay: FACS, CHO-K1-cyno DLL3 cells, 0.16 nM antibody
row,Binder,MFI
1,B1,1180 MFI
2,B2,1190 MFI

# Target: monkey DLL3 on CHO-K1-cyno DLL3 cells (cynomolgus monkey)
# Assay: FACS, CHO-K1-cyno DLL3 cells, 0.032 nM antibody
row,Binder,MFI
1,B1,377 MFI
2,B2,415 MFI

# Target: monkey DLL3 on CHO-K1-cyno DLL3 cells (cynomolgus monkey)
# Assay: FACS, CHO-K1-cyno DLL3 cells, 0.0064 nM antibody
row,Binder,MFI
1,B1,164 MFI
2,B2,178 MFI

# Target: monkey DLL3 on CHO-K1-cyno DLL3 cells (cynomolgus monkey)
# Assay: FACS, CHO-K1-cyno DLL3 cells, 0.00128 nM antibody
row,Binder,MFI
1,B1,122 MFI
2,B2,131 MFI

# Target: human DLL1 protein (Acro, Cat. No. DL1-H52H8) (human) (UniProt O00548)
# Assay: ELISA, coated hDLL1; maximum over 0.1, 1, 10, 100 nM antibody
# Sequence of human DLL1 protein (Acro, Cat. No. DL1-H52H8) (human) (O00548 18-540 limits assumed): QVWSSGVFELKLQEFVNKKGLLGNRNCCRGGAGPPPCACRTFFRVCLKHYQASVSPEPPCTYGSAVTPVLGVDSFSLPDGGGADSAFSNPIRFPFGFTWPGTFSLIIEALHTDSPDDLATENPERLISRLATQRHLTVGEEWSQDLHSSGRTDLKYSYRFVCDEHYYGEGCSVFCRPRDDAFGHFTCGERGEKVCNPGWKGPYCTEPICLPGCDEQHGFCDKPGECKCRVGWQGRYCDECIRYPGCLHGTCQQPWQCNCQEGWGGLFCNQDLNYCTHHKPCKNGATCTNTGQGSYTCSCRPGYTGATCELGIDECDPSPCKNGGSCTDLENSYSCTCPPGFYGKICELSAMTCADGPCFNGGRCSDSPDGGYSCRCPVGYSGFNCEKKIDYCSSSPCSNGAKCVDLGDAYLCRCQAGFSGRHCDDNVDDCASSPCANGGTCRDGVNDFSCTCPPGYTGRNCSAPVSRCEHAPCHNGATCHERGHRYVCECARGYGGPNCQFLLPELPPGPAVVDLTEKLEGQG
row,Binder,Emax of OD450 nm binding value
1,B1,0.42 OD450 nm
2,B2,0.47 OD450 nm

# Target: human DLL4 protein (Acro, Cat. No. DL4-H5227) (human) (UniProt Q9NR61)
# Assay: ELISA, coated hDLL4; maximum over 0.1, 1, 10, 100 nM antibody
# Sequence of human DLL4 protein (Acro, Cat. No. DL4-H5227) (human) (Q9NR61 27-524 limits assumed): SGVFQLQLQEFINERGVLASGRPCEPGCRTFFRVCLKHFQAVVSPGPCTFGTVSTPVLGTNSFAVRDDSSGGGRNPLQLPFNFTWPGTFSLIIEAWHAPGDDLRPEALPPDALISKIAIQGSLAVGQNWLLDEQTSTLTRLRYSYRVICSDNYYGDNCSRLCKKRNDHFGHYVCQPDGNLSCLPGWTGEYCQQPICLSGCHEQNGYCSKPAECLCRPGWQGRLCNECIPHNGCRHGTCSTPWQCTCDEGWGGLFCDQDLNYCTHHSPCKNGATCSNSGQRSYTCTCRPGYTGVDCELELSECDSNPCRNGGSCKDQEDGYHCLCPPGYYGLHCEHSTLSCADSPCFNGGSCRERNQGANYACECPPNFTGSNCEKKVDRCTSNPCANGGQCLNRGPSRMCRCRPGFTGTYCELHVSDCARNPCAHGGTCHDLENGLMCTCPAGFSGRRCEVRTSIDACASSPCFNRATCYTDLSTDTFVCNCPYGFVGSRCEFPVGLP
row,Binder,Emax of OD450 nm binding value
1,B1,0.71 OD450 nm
2,B2,0.71 OD450 nm
